From US20250340625A1, “ANTIBODY SPECIFICALLY BINDING TO ANGIOPOIETIN-2, OR FRAGMENT THEREOF” (NEORTESBIO INC., priority 2021, published 2025)

How the values were obtained:
[1] = system: Tie2 downstream signaling (AKT phosphorylation) in HUVEC cells; experiment: Phospho-Akt1 (Ser473) sandwich ELISA of Tie2 downstream signaling in HUVEC cells; format: cell-based
Protocol: To quantitatively analyze the effect of anti-Ang2 antibodies on Tie2 downstream signaling, the level of AKT phosphorylation was measured using ELISA.
HUVEC (Lonza) cells (2×10^5) were cultured at 37° C. using EGM-2 (Lonza) medium, and when 80-90% confluency was observed, they were changed to 0.5% FBS Basal media (Lonza) and cultured at 37° C. for 16 to 24 hours. 60 nM of anti-Ang2 antibody was mixed with 40 nM of Ang2 protein (Sino Biological) and left for 30 minutes. Then, the cultured cells were treated and incubated for another 10 minutes. For comparison, groups treated with 40 nM of Ang2, 40 nM of Ang2+60 nM of anti-Ang2 control antibody (h10D6-OPTI-67, U.S. Pat. No. 10,934,350) were prepared. The cells were washed with PBS, treated with the lysis buffer, centrifuged at 13,000 rpm for 15 minutes, and the supernatant was recovered to obtain a cell lysate.
For ELISA, 50 μL of PathScan®Phospho-Akt1 (Ser473) Sandwich ELISA Antibody Pair (Cell signaling) capture antibody diluted 1:100 was added to a 96 well ps half area plate (Greiner cio-one) and coated. Then, the plate was washed four times with PBST (Phosphate Buffer Saline containing 0.05% (v/v) Tween-20) and then blocked with PBST containing 1% (v/v) skim milk at 37° C. for […]. […] Afterwards, 50 μL of Stop solution was added to stop the reaction, and the OD450 value was measured on a plate reader (BioTek).

[2] = system: Tie2 receptor downstream signaling in HUVEC cells; experiment: Western blot of AKT and ERK 42/44 phosphorylation (Tie2 downstream signaling) in HUVEC cells; format: cell-based; details: 60 nM anti-Ang2 antibody mixed with 40 nM Ang2, 10 minutes, FIG. 1
Protocol: Ang2 binds to the Tie2 receptor expressed on vascular endothelial cells and acts as a weak agonist or antagonist. Since the anti-Ang2 antibody developed in the present invention binds to Ang2 and forms a complex with Ang2-Tie2, thereby activating the Tie2 receptor and promoting downstream signaling, ERK and AKT phosphorylation experiments were performed to analyze the effect of anti-Ang2 antibodies on Tie2 downstream signaling using a cell-based assay. To compare the degree of activation of Tie2 downstream signaling, the same test was performed on the group treated with Ang2 (Sino Biological) and another Ang2 control antibody (Korean Patent Publication No. 10-2015-0136031).
Specifically, HUVEC (Lonza) cells (2×10^5) were cultured at 37° C. using EGM-2 (Lonza) medium, and when 80-90% confluency was observed, they were changed to 0.5% FBS Basal media (Lonza) for […]. Cultured at 37° C. for […]. 60 nM of anti-Ang2 antibody was mixed with 40 nM of Ang2 protein (Sino Biological) and left for 30 minutes. Then, the cultured cells were treated and incubated for another 10 minutes. For comparison, groups treated with 40 nM Ang2 and 40 nM Ang2+60 nM anti-Ang2 control antibody were prepared. […]

B1: 1D3: mouse anti-Ang2 monoclonal antibody; CDRs SEQ ID NO: 18-23, VH SEQ ID NO: 24, VL SEQ ID NO: 25 (antibody, V domains shown)
VH: DVQLQESGPGLVKPSQSLSLTCTVTGYSITSDYGWNWIRQFPGNKLEWMGYISYSGTTSYNPSLKSRISITRDTSKNQFFLQLNSVTTEDTATYYCARSEGTGFYAMDYWGQGTSVTVSSAKTTPPKLY
VL: SIVMTQTPKFLLVSAGDRVTIICKASQSVSNDVAWYQQKPGQSPKLLIYYASNRYTGVPDRFTGSGYGTDFTFTISTVQAEDLAVYFCQQDYSSPTFGGGTKLEIKRA
modifications: VH; VL
Order of AKT phosphorylation curves in FIG. 2, from the curve with the highest value ([1]; HUVEC cells together with Ang2, printed order 1D3, 2C8, 1A9, 1H10, control 67 clone): highest | Tie2 downstream signal (AKT phosphorylation ELISA) compared to previously known control antibodies ([1]; HUVEC cells, antibody together with 40 nM Ang2, OD450, FIG. 2): significantly stronger Tie2 downstream signal | AKT and ERK activation signals (western blot) compared to the negative control group [2]: showed AKT and ERK activation signals
